Reference: the nanobody polyreactivity screen of Harvey et al. (2022)

Assay: yeast display, Sf9 membrane polyspecificity reagent, FACS + sequencing; frameworks hold sequencing errors
Summary of the method: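 Galactose-induced (36–48 hours) yeast carrying a synthetic nanobody display library were exposed to 10% biotinylated, detergent-solubilized Sf9 membrane reagent at 4 °C for 1 hour. FACS followed streptavidin microbead enrichment, using low and high (top ~1%) gates for expression (anti-HA) and reagent binding (streptavidin). Colony PCR, MiSeq 2 × 250 sequencing and CDR-length filtering followed. Labels for polyreactivity reflect the gate of origin.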

Sequence | polyreactivity (PSR sort gate)
QVQLVESGGGLVQAGGSLRLSCAASGSIFTPYAMGWSRQAPGKERELVAVISWRVDSTYYADSVKGRFTISRDNAKNTVYLQMNSLKPEDTAVYYCAAKSYLLAPFGSGNRWSRYDYWGQGTQVTVSS | high polyreactivity
HVQRVESGGGLVQAGGSLRLSCAASGLIFVRYAMGWYRQAPGKERELVAAITTGGRTYYADSVKGRFTISRDNAKNTVYLQMNSLKPEDTAVYDCAASRSTYRASRPGTTFNYWGQGTQVTVSS | high polyreactivity
QVQLVESGGGLVQAGGSLRLSCAASGSNFLGNAMGWSIQAPGKERELVAAISSITGRTYYADSVKGRFTISRDNAKNTVYLQMNSLKPEDTAVYYCAAVQGANYYNEFDYWGQGTQVTVSS | high polyreactivity
QVQLVESGGGLVQAGGSLRLSCAASGLIIPYYAMGWSRQAPGKERELVAGITSDGSTNYADSVMGRFTISRDNAKIIVYLQMYSLKPVDTAVYYCAKEQGLYSVSPYDYWGQGTQVSVSS | low polyreactivity
QVQLGESGGGLVQAGGSLRLICAASGRTIRQYAMGRYRQAPGKERELVAAIDSGGSTYYADSVKGRFTISRDNAKNTVYLQMNSLKPEYTAVYYCAKGPSWKYYSYTLDYWGQGTQVTVSS | low polyreactivity
QVQLVESGGGLVQAGGSLRLSCAASGSIVDFYAMGWYRQSPGTERELVAAIDDIDDSTYYADSVKGRFTISRDNAKNTVYLQMNSLKPEDTAVYYCAAELRPGYRSSYGLIYDYWGQGTQVTVSS | low polyreactivity
QVQLVESGGGLVQAGGSLRLSCAPSGSTFRPYGMGWYRQAPCKETELVAAINSGDSTYYADSVKGRFTISSDNAKNTVYLQMNSLKPEDTAVYYCAAGYYIRGRYGYWGQATQVTVSS | high polyreactivity
QVQLVESGGGLVQAGGSLRLSCAASGSIFNKYAMGWYRQAPGKERELVATISFRGGSTYADSVKGRFTISRDNAKNTVYLQMNSLKPEDTAVYYCATKSGRNSPRMDYWGQGTQVTVSS | high polyreactivity
QVQHVESGGGLVQAGGSLRLSCAASGLTLYGYTMGWYRQAPGKERELVPTITTGGDSTYYADSVKGRFTISRDNAKNTVYLQMTSLKPEDTAVYYCSAFSYGWDYSYDYWGQGTQVTVSS | low polyreactivity
QVQLVESGGGLVQAGGSLRLSCAASGRIFPPYAMGWYRQAPGKERELVATISYTGGSTYYADSVKGRFTISRDNAKNTVYLQMNRLKPEDTAVYYCNAEYYYWNREGDYWGQGTQVTVSS | low polyreactivity
QVQLVESGGGLVQAGGSLRLSCASSGRTLPYNAMGWYRQAPGKERELVAAISKRGSSTYYADSVKGRFTLSRDNAKNTVYLQMNSLKPEDTAVYYCAKGGSFYYWGQGTQVTVSS | high polyreactivity
QVQLVESGGGLVQAGGSLRLICAASGFTLGSNAMGWYRQAPGKERELVAAMSKSGGSTYYADSVKGRFTISRDNAKNTVYLQMNSLKPEDTAVYYCAARYLYQGYRYDYWGQGTQVTVSS | high polyreactivity
QVQLVESGGGLVQPGGSLRLSCAASGSIFRVYAMGWYRQAPGKERELVAAISRGGNTNYADSVKGRFTISRDNAKNTVYLQKNSLKPEDTAVYYCNARYYSWDWWIGYDYWGQGTLVTVSS | high polyreactivity
QVQLVESGGGLVQAGGSLRLSCAASGLIFYYYAMGWYRQAPWKEREFVAAISRSGGIKRYADSVKGRFTISRDNAKNTVYLQMNSLKPEDTAVYYCAARYYYRHAQSFPWSNRWSSYYYWGQGTQVTVSS | high polyreactivity
QVQLVESGGGLVQAGGSLRLSCAASGRTFLSYMGWYRQAPGKERELVAISRSGTSTYYADSVKGRFTISRDNAKNTVYLQMNSLKPEDTAVYYCAAETNTWYLFDYWGQGTQVTVSS | high polyreactivity
QVQLVESGGGLVQAGGSLRLSCAASGRIVTAYAMGWYRPAPGKEREFVAAISSSGGSTYADSVKGRFTISRDNAKNTVYLQINSLKPEDTAVYYCAARYGFYWFPGYYYWGQGTQVTVSS | low polyreactivity
QVQLVESGGGLVQAGGSLRLSCAASGSIFFVYAMGWYRQAPGKERELVAGISGRDGSTYYADSVKGRFTISRDNAKNTVYLQMNSLKPEDTAVYYSARVYWGQGTQVTVSS | low polyreactivity
EEELVESGGGLVQAGGSLRLSCAASGSIFQYNAMGWYRQAPGKDRELVAVISWSGDTYYADSVKGRFTISRDNAKNTVYLQMNSLKPEDTAVYYCNAVQYTFTSEYGYWGQGTQVTVSS | low polyreactivity
QVQLVESGGGLVQAGGSLRLSCAASGRTFSRYVMGWYRQAPGKERELVAGISQSGARTTYADSVKGRFTISRDNAKNTVYLQMNSLKPEDTAVYYCAAVGYGIRSYYSYDYWGQGTQVTVSS | high polyreactivity
QVQLVESGGGLGQAGGSLSLSCAASGFNFSHYAMGWYIPAPGKERELVAAITRGGSTKYADSVKGRFTISRDNAKNTVDLEMNSLKPEDTAVYYCAKDKTYRNVRGVGYWGQGTQVTVSS | high polyreactivity
QVQLVESGGGLVQAGGSLRLSCAASGSIFYSYAMGWYRQAPGKERELVADITITGSTYYADSVKGRFTISRDNAKNTVYLQMNSLKPEDTAVYYCDAVLAPGGYDYWGQGTQVTVSS | low polyreactivity
QVHLVESGAGLVQAGGSLRLSCAASGSVFPVNAMGWYRQAPGKERELVAAISGSSGSTYYADSVKGRFTISRDNAKNTVYLQMNSLKPEDTAVYYCAKRGYGYGDGAYYYWGQGTQVTVSS | low polyreactivity

Sequence | polyreactivity (PSR sort gate)
QVQHVESGGGLVQAGGSLRLTCAATGRIFYTNTMGWYRQAPGKEREFVAAISWRGGSTYYADSVKGRFTISRDNAKNTVYLQMNSLKPEDTAVYYCAKTRTYFLSRYVSWGQGTQVTVSS | high polyreactivity
QVQLVESGGGLGQAGGSLRLSCAASGGTFYAYAMGWYRQAPGKEREFVAAISRRGGSTYYADSVKGRFTISRDNAKNTVYLQMHSLKPEDNAVYYCKALYSSSPGAKPWGEYNYWGQGTQVTVSS | high polyreactivity
QVQLVESGGGLVQAGGSLRLSCAASGRIFYSNAMGWYRQAPGKERELVAAISWSTGSTYYADSVKGRFTISRDHAKNTVYLQMNSLKPEDTAVYYCYKDDAQTRSFASTWYDYWGQGTQVTVSS | high polyreactivity
QVQLVESGGGLVQEGGSLRLSCAASGRTLRYNDMGWYRQAPGKERELVAAISTRGGSTYYADSVKGRFTISRDNAKNTVYLQMYSLKPEDTAVYYCAVTPRIPGHFEDYYWGQGTQVTVSS | low polyreactivity
QVQLVESGVGLVQAVGSLRLSCAASGSTFPWYAMGWYRQAPGKERSLVAGSSEGGGSTYYADSVKGRFTISRDNAKNTVYLQMNRLKPEDTAVYYCAADQVGAVYWVGEYGYWGQGTQVTVAS | low polyreactivity
QVQLVESGGGLVQAGGSLRLSCAASGSIFFSNVMGWSRPAPGKERELVAAITRGGGTNYADSVKGRFTISRDNAKNTVYLQMNSLKPEDTAVYYCNRDPQKYRWIPRYDYWGQGTQVTVSS | low polyreactivity
QEQLQESGGGLVQAGGSLRLSSAASGSISGSSTMGWYRQAQGKERELVASIAVGANTNYADSAKGRFTISRDNAKNTVYLQMNSLKPEDTAVYYCAVDYYIYYFHYWGQGTQVTVSS | high polyreactivity
QVQLVESGGGLVQAGGSLRLSCAASGRIFYGYAMGWYRQAPGKERELVAAITWSGGRTYYADSVKGRFTISRDNAKNTVYLQMNSLKPEDTAVYYCNRPRRTSPSTYYHWGQGTQVTVSS | low polyreactivity
QVQLVESGGGLVQAGGSLRLSCAASGRTIDHYAMGWYRQAPGKERELVAAISTTGGSTYYADSVKGRFTISRDNAKNTVYLQMNSLKPEDTAVYYCAAQLGWWGSGYWGQGTQVTVSS | high polyreactivity
QDQLVESGGGLVQAGGSLRLSCAAYGRTLRRYAMGWYRQAPGKERELVAAISRSGSSTYADSVKGRFTISRDNAKNTVYLQMNSLKPEDTAVYYCNAYQPRYGYWGQGTQVTVSS | high polyreactivity
QVQLVESGGGLVQAGGSLRLSCAASGNTFGDNAMGWYRQAPGKERELDAAISTGGNTYYADSVKGRFTISRDNAKNSVYLQMNSLKPEDTAVYYCNAKWIPDTLFGIHETEGDYWGQGTQVTVSS | low polyreactivity
QVQLVESGGGLVQAGGSLSLSSAASGRTFTFNTMGWYRQAPGKERELVAAIDGDGTTNYADSVKGRFTISRDNAKYTVYLQMNSLKPEDTAVYYCAADFLYSFWYEPTFDYWGQGTQVTVSS | low polyreactivity
QVQLVESGGGLVQAGGSLRLSCAASGITLYAYVMGWYRQAPGKERELVAAIRSGGSTYYADSVKGRFTISRDNAKNTVYLQKNSLKPEDTAVYYCAAYYPLWGWGYDYWGQGTQVTVSS | high polyreactivity
QVQLVESGGGLVQAGGSLRLSCAASGRTFGPYSMGWYRQAPGKERELVAAISSSGSTTYYADSVKGRFTISRDNAKNTVYLQMNSLKPEDTAVYYCAKPSSRDSPYDYWGQGSQVTVSS | low polyreactivity
QVHLVESGGGLVQAGGSLRLSCAASGFIFNYYAMGWYRQAPGKERELVAAISWRGTSTYYADSVKGRFTISRDNAKNTVYLQMNSLKPEDNAVYYCAAAKYPYVRRAWNFVGYDYWGQGTQVTVSS | high polyreactivity
QVQLVESGGGLVQAGGSLRLSCAASGSIFGDYAMGWSSQAPGKEGELVAAISRGDGTYYADSVKGRFTISRDNAKNTVYLQMNSLKPEDTAVYYCNAGGRYHAPSGDFWGQGSQVTVSS | low polyreactivity
QVQLVESGGGLVQAGGSLRLSCAASGSIFDDYAMGWYRQAPGKERELVAAISWSGGRTYYADSVKGRFTISRDNAKNTVYLQMNSLKPEDTAVYYCAASTGVRSRRYYYWGQGTQVTVSS | low polyreactivity
QVQLVESGGGLVQAGGSLRLSCAASGFTFRKYAMGWYRQAPGKERELVAVINIVGSTYYADSVKGRFTISRDNAKNTVYLQMNSRKPEDTAVYYCAADWSYLLKYYWYGGFNYWGQGTQVTVSS | high polyreactivity
QVQLVESGGGLVQAGGSLRLSCAASGSTFVYNAMGWDRQAPGKERELVAAITVSDGSTYYADSVKGRFTISRDNAKNTVYLHMKSLKPEDTAVFYCNADFPRKTRYEYWGQGTQVTVSS | low polyreactivity
QVQLVESGGRLVQAGGSIRLRCAASGNTFVYNDMGWYRQAPGKERELVADIRYSGSTYYADSVKGRFTISRDNATNTVYLEMNSLKPEDTAVYYCAKAYYVLSWMGYWGQGTQVTVSS | low polyreactivity
QVQLVESGGGLVQAGGSLRLSCAASGSTFPSNAMGWYRQAPGKERELVAAITFRGGRTYYADSVKGRFTISRDNAKNTVYLQMNSLKPEDTAVYYCAAERWWYTVRGYGYWGQGTQVTVSS | high polyreactivity
